“Also recorded” adds a separate entry of the source.

The results in this text go back to patent publication US10556007B2, “Antibody which binds Lrg1 and methods of use” (UCL Business PLC, priority 2015, dated 2020).

For data set [1], the system named is laser-induced choroidal neovascularisation. Description: Rat laser-induced choroidal neovascularisation (CNV). The format is in vivo. Conditions: Long Evans rats, intravitreal at time of lasering, analysis 7 days later. How it is done: Several antibodies were tested for their ability to block CNV in the rat. In these experiments mAbs were injected intravitreally at the time of lasering, with eyes being retrieved for analysis 7 days later (FIG. 5). Long Evans rats, aged 6-8 weeks, each received 5 retinal laser burns at the same time as intravitreal delivery of […] mAb or control IgG into both eyes. Four rats were used for each mAb, so a total of 40 lesions were analysed by staining for collagen IV and the neovascular areas quantified. […] Avastin was also tested in the rat laser model (data not shown) and observed to have no effect, consistent with Avastin having low affinity for rat VEGF.

A further data set has as its target T1, human Lrg1 (Homo sapiens, UniProt P02750).
T1 sequence (P02750 36-347): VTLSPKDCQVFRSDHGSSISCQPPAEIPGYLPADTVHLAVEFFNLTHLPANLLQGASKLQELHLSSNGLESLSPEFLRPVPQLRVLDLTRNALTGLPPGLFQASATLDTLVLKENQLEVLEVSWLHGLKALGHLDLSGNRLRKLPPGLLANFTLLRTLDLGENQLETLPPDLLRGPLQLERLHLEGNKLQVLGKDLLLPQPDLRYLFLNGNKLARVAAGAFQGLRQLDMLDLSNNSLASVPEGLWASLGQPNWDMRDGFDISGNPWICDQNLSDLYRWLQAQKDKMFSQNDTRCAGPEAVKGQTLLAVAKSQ
In words: Anti-human Lrg1 competition ELISA against biotinylated mouse 15C4. In kind it is binding. On the set-up: made in house. As to conditions: competition with biotinylated mouse 15C4. The method, then:
The chimeric antibody was expressed transiently in HEK EBNA cells and stably in NS0 mouse myeloma cells, purified and tested for binding to human Lrg1 in a competition ELISA assay. A Nunc Immuno MaxiSorp 96 well flat bottom microtitre plate (Fisher, cat. no. DIS-971-030J) was pre-coated with 0.2 μg/ml hLrg1 (supplied by UCL) overnight in 0.1 N Sodium Carbonate buffer (NaHCO3) at +4° C. The following day the plate was washed 1× with PBST and blocked with 3% BSA/PBS for 1 hour at room temperature. After washing 3× with PBST, a three-fold dilution series of chimeric, mouse or control antibodies from 100 μg/ml to 0.13 μg/ml was premixed with a constant concentration of biotinylated mouse 15C4 (0.4 μg/ml, final concentration), added to the plates and incubated for 1.5 hours at room temperature. Following 3×PBST washes, the binding of the biotinylated mAb was detected with streptavidin-HRP (Sigma, cat. no. 55512) and TMB substrate (Invitrogen, cat. no. 00-2023). The reaction was stopped with 3 M HCl, absorbance read at 450 nm on a Dynex Technologies MRX TC II plate reader and the binding curves plotted.
The properties of Magacizumab were investigated. […] An anti-hLrg1 competition ELISA was carried out. […] Bound biotinylated mouse 15C4 was detected using streptavidin-peroxidase and TMB substrate. […]
For orientation: In an ELISA, binding on a coated surface is turned into a signal by an enzyme label.

In data set [2] the test system is laser-induced choroidal neovascularisation. Description: Mouse model of laser-induced CNV. The format is in vivo. As to conditions: for lesion size: C57B6 mice, intravitreal. The method, then: The images on the left of FIG. 17A show a typical wild-type mouse retina under normal illumination (Fundus), and under fluorescence illumination, 7 days after three laser burns were administered to the retinal pigment epithelium. Fluorescence images were captured ˜60 seconds after systemic dosing with fluorescein (Early Phase FFA) and again after ˜7 minutes (Late Phase FFA). At the time of lasering, animals received intraocular injections of either control IgG (top panels) or 15C4 (lower panels). The Early Phase FFA images show the size of the lesions, and the Late Phase images show leakage of fluorescein into the retina. Lesion sizes were quantified for 15C4 at 2.5, 5 and 10 μg doses, and also Eylea at 2 and 4 μg, and the % blocking is a measure of average lesion size relative to that observed in the controls. On the far right a similar analysis was undertaken using Eylea and Magacizumab (both at 2.1 μg) alone and in combination.
Wild type C57B6 mice were anaesthetized and received intravitreal injections of various doses of either Magacizumab, Eylea, or both in combination, immediately following laser photocoagulation of the retinal pigment epithelium. After 7 days (to allow the vascular lesions to form) the mice were again anaesthetized and examined by fluorescein angiography (FFA). Early phase FFA images (taken after 90 s) show the degree of vascularization at the lesion site. Measurement of the lesion area in the early phase images permits quantification in which percentage lesion size is normalized against the IgG4 control (FIG. 18).

Data set [3] can be described thus: Analytical size exclusion chromatography. The format is physicochemical. (In general: In gel filtration, larger molecules generally elute earlier.)
In the next data set the test system is healthy donor T cells. In words: EpiScreen T cell proliferative assay. Conditions: 20 donor T cell samples, days 5-8. The format is cell-based, human. An excerpt: FIG. 21D—Summary of healthy donor T cell proliferative responses. Positive T cell responses during EpiScreen™ time course days 5-8 are shown (P). Samples inducing proliferation with SI ≥2.00 that were significant (p<0.05) were considered positive (borderline responses* SI≥1.90, p<0.05 are also shown). The frequency of positive T cell responses for proliferation are shown as a percentage at the bottom of the columns.

Turning to “Avastin: anti-VEGF antibody Bevacizumab (Avastin) [reference compound]”, the “blockade of angiogenesis (CNV)” value in data set [1] is given as “no effect”.

B1: chimeric: murine 15C4 variable regions combined with human IgG4 (S241P) heavy chain and Kappa light chain constant regions (antibody, V domains shown)
VH: QVQLQQSGDEVVRPGSSVKISCKASGYTFSGYWMNWVKQRPGQGLQWIGQIYPGDGDTNYNGKFKGKATLTADKSSSTAYMQLSTLTSEDSAIYFCARSITTVVLDYWGQGTTLTVSS
VL: DIVLTQSPVSLAVSLGQRATISCRASQSVSTSGYSFMHWYQQKPGQPPKFLIKYASNLESGVPARFSGSGSGTDFTLNIHPVEEEDTATYYCQHSWEMPLTFGAGTKLELK
Regarding B1, the “binding profile / competition for binding to human Lrg1” value with human Lrg1 was “very similar binding profile to mouse 15C4”.

B2: Magacizumab: humanised 15C4 antibody comprising heavy chain variable regions VH5 and kappa light chain variable regions VK3 (antibody, V domains shown)
VH: QVQLVQSGAEVKKPGSSVKVSCKASGYTFSGYWMNWVRQAPGQGLEWIGQIYPGDGDTNYNGKFKGRVTITADKSTSTAYMELSSLRSEDTAVYYCARSITTVVLDYWGQGTTVTVSS
VL: DIVLTQSPDSLAVSLGERATISCRASQSVSTSGYSFMHWYQQKPGQPPKLLIKYASNLESGVPARFSGSGSGTDFTLTISSLQPEDFATYYCQHSWEMPLTFGQGTKLEIK
For the molecule B2, the lesion size entry is “significant reduction in lesion size” in data set [2] (alone, vs IgG4 control) and “significant reduction in lesion size” in data set [2] (in combination with Eylea, vs control). The lesion formation result in data set [2] (intraocular injection at lasering, FFA after 7 days) was “Dose-Dependent Inhibition of Lesion Formation; also recorded: inhibit lesion formation with similar efficacy to the VEGF blocker Eylea”. Moreover, the “aggregation by analytical size exclusion chromatography” value in data set [3] was “single peak and no aggregates”. For the same molecule, the “T cell proliferative response” value in the data set on healthy donor T cells is listed as “failed to elicit a proliferative response in any of the 20 donor T cell samples”.
